The supplement of paper PMC9233669
Variants at the floor of the assay were thinned out.

Experiments:
[1] = tested on: biotinyl-Phe-oxazolone; assay: self-aminoacylation, catalytic enhancement (BFO) (fold over background); higher = more active; k-Seq, kA / k0A0; sequences stand for … in GGGAAUGGAUCCACAUCUACGAAUUC…UUCACUGCAGACUUGACGAAGCUG
Outline: (§1)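 Working in 50 μL HEPES/NaCl/KCl/MgCl2/CaCl2 buffer with 5% acetonitrile at pH 6.9–7.0, mutagenized RNA pools (0.43 μM; 21-nt variable region) were reacted with 2–1250 μM of each biotinyl-aminoacyl-oxazolone for 90 minutes at room temperature. Streptavidin capture followed, with quantification by triplicate qPCR and Illumina sequencing. Catalytic enhancement is reported as median kA over the uncatalyzed rate, the low-activity peak of a bimodal Gaussian fit to the data.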

[2] = tested on: biotinyl-Ile-oxazolone; assay: self-aminoacylation, catalytic enhancement (BIO) (fold over background); higher = more active; k-Seq, kA / k0A0; sequences stand for … in GGGAAUGGAUCCACAUCUACGAAUUC…UUCACUGCAGACUUGACGAAGCUG
Outline: as §1

[3] = tested on: biotinyl-Met-oxazolone; assay: self-aminoacylation, catalytic enhancement (BMO) (fold over background); higher = more active; k-Seq, kA / k0A0; sequences stand for … in GGGAAUGGAUCCACAUCUACGAAUUC…UUCACUGCAGACUUGACGAAGCUG
Outline: as §1

[4] = tested on: biotinyl-Val-oxazolone; assay: self-aminoacylation, catalytic enhancement (BVO) (fold over background); higher = more active; k-Seq, kA / k0A0; sequences stand for … in GGGAAUGGAUCCACAUCUACGAAUUC…UUCACUGCAGACUUGACGAAGCUG
Outline: as §1

[5] = tested on: biotinyl-Leu-oxazolone; assay: self-aminoacylation, catalytic enhancement (BLO) (fold over background); higher = more active; k-Seq, kA / k0A0; sequences stand for … in GGGAAUGGAUCCACAUCUACGAAUUC…UUCACUGCAGACUUGACGAAGCUG
Outline: as §1

[6] = tested on: biotinyl-Trp-oxazolone; assay: self-aminoacylation, catalytic enhancement (BWO) (fold over background); higher = more active; k-Seq, kA / k0A0; sequences stand for … in GGGAAUGGAUCCACAUCUACGAAUUC…UUCACUGCAGACUUGACGAAGCUG
Outline: as §1

Row | Sequence | self-aminoacylation [1] | self-aminoacylation [2] | self-aminoacylation [3] | self-aminoacylation [4] | self-aminoacylation [5] | self-aminoacylation [6]
1 | UUUACCCUGGUCAUCGAGCGA [Fam2.1 aminoacylation ribozyme variant] | 2.17 | 2.16 | 3.05 | 2.43 | 3.21 | 3.52
2 | UUUACCCUGGUCAUCGAGUGU [Fam2.1 aminoacylation ribozyme variant] | 542 | 22.7 | 82.3 | 26.3 | 71.5 | 75.4
3 | UUUACCCUGGUCAUCGCGUGA [Fam2.1 aminoacylation ribozyme variant] | 128 | 7.82 | 18.9 | 9.57 | 16.9 | 19
4 | UUUACCCUGGUCAUCGUGUGA [Fam2.1 aminoacylation ribozyme variant] | 15.3 | 1.66 | 2.98 | 2.06 | 3.11 | 3.71
5 | UUUACCCUGGUCUUCGAGUGA [Fam2.1 aminoacylation ribozyme variant] | 13.9 | 2.46 | 3.61 | 2.79 | 3.58 | 5.27
6 | UUUACGCUGGUCAUCGAGUGA [Fam2.1 aminoacylation ribozyme variant] | 10.2 | 3.56 | 4.46 | 4.07 | 4.78 | 6.37
7 | UUUACUCUGGUCAUCGAGUGA [Fam2.1 aminoacylation ribozyme variant] | 7.42 | 3.99 | 5.53 | 3.58 | 5.43 | 6.74
8 | UUUCACCUAGGCCAUCGGGUG [Fam2.2 aminoacylation ribozyme variant] | 20.8 | 3.27 | 3.71 | 4 | 4.34 | 4.57
9 | UUUCACCUAGGGCAUCGGGUG [Fam2.2 aminoacylation ribozyme variant] | 26 | 3.17 | 3.15 | 3.9 | 3.49 | 3.56
10 | UUUCACCUAGGUCAUCGAGUG [Fam2.2 aminoacylation ribozyme variant] | 16.4 | 5.72 | 7.16 | 4.45 | 9.37 | 4.82
11 | UUUCACCUAGGUCAUCGGGAG [Fam2.2 aminoacylation ribozyme variant] | 1.4 | 1.68 | 1.73 | 1.35 | 1.82 | 2.02
12 | UUUCACCUAGGUCAUCGGGCG [Fam2.2 aminoacylation ribozyme variant] | 4.77 | 3.06 | 4.77 | 3.19 | 5.21 | 4.57
13 | UUUCACCUAGGUCAUCGGGUA [Fam2.2 aminoacylation ribozyme variant] | 184 | 14.7 | 27.4 | 13.9 | 36.1 | 21.2
14 | UUUCACCUAGGUCAUCUGGUG [Fam2.2 aminoacylation ribozyme variant] | 9.3 | 1.76 | 1.88 | 1.86 | 2.22 | 2.5
15 | UUUCACCUAGGUCCUCGGGUG [Fam2.2 aminoacylation ribozyme variant] | 35.6 | 3.82 | 4.17 | 4.22 | 4.92 | 5.68
16 | UUUCACCUAGGUCUUCGGGUG [Fam2.2 aminoacylation ribozyme variant] | 29 | 4.04 | 4.63 | 4.51 | 5.06 | 5.4
17 | UUUCACCUAGGUGAUCGGGUG [Fam2.2 aminoacylation ribozyme variant] | 24.3 | 3.55 | 3.5 | 3.67 | 4.15 | 5.69
18 | UUUCACCUAGGUUAUCGGGUG [Fam2.2 aminoacylation ribozyme variant] | 19.6 | 2.92 | 3.71 | 2.93 | 3.72 | 4.62
19 | UUUCACGUAGGUCAUCGGGUG [Fam2.2 aminoacylation ribozyme variant] | 32.2 | 2.89 | 4.24 | 4.25 | 3.88 | 4.06
20 | UUUCACUUAGGUCAUCGGGUG [Fam2.2 aminoacylation ribozyme variant] | 46.7 | 4.22 | 6.17 | 4.19 | 6.73 | 6.64
21 | UUUGCCCUGGUCAUCGAGUGA [Fam2.1 aminoacylation ribozyme variant] | 294 | 16.5 | 45.5 | 18.1 | 41 | 46.1
